What was measured:
[1] = molecular target: T1, FLAG-AT2R-CFP (angiotensin II type 2 receptor) (human, UniProt P50052 1-363); test: co-IP; HeLa cells co-transfected with HA-AT1R-YFP and Flag-AT2R-CFP, serum starved, with or without losartan or PD123319 pre-treatment and AII stimulation; NP-40 lysis buffer (10 mM Tris-HCl pH 7.4, 150 mM NaCl, 5 mM EDTA, 0.5% NP-40, 10% glycerol); anti-FLAG antibody with protein A-Sepharose; blot with anti-HA; settings: partners not purified
T1 construct: Human angiotensin II type 2 receptor (AT2R); cDNA by RT-PCR from human umbilical vein endothelial cells; printed primers run from the codon after the initial methionine to the last codon; FLAG tag inserted after the initial methionine; subcloned EcoRI-NotI into pCXN2-CFPC; also called CFP-tagged AT2R; source: HeLa cells, transfected (FuGENE HD), in lysate or in living cells; not shown: FLAG, …
T1 sequence (looked up): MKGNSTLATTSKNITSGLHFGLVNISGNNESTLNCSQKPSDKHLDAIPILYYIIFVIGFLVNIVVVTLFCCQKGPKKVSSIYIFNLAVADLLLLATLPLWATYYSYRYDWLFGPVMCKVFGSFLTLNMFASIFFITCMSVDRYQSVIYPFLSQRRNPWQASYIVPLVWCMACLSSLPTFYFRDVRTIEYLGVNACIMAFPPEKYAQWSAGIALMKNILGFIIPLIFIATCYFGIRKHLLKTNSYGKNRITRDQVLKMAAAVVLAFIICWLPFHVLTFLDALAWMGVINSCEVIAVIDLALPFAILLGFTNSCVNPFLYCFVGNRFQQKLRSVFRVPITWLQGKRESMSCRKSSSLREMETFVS

[2] = molecular target: T1, FLAG-AT2R-CFP (angiotensin II type 2 …); test: co-IP; 293T cells, with or without AII (Suppl. Fig. S3); details not shown; settings: partners not purified

B1: HA-AT1R-YFP (angiotensin II type 1 receptor) (receptor, human, UniProt P30556 1-359, looked up)
chain: MILNSSTEDGIKRIQDDCPKAGRHNYIFVMIPTLYSIIFVVGIFGNSLVVIVIYFYMKLKTVASVFLLNLALADLCFLLTLPLWAVYTAMEYRWPFGNYLCKIASASVSFNLYASVFLLTCLSIDRYLAIVHPMKSRLRRTMLVAKVTCIIIWLLAGLASLPAIIHRNVFFIENTNITVCAFHYESQNSTLPIGLGLTKNILGFLFPFLIILTSYTLIWKALKKAYEIQKNKPRNDDIFKIIMAIVLFFFFSWIPHQIFTFLDVLIQLGIIRDCRIADIVDTAMPITICIAYFNNCLNPLFYGFLGKKFKRYFLQLLKYIPPKAKSHSNLSTKMSTLSYRPSDNVSSSTKKPAPCFEVE
notes: Human angiotensin II type 1 receptor (AT1R); cDNA by RT-PCR from human umbilical vein endothelial cells; printed primers run from the codon after the initial methionine to the last codon; HA tag inserted after the initial methionine; subcloned EcoRI-NotI into pCXN2-YFPC; The reverse primer also encodes a stretch behind the NotI site that is lost on subcloning EcoRI-NotI into pCXN2-YFPC; also …
fold enhancement of the association by AII treatment (against no AII) [1]: 1.6 fold | fold enhancement of the association by AII treatment (against no AII) [2]: 2.4 fold

From PMC4746669, “Attenuation of ligand-induced activation of angiotensin II type 1 receptor signaling by the type 2 receptor via protein kinase C” (Scientific Reports, 2016)
